Measured values published in the supplement of paper PMC7877785.
± gives the uncertainty stated by the source.

Test: self-splicing fitness, log relative to wild type (ln ratio); higher = more splicing; Tetrahymena group I intron in knt gene, E. coli kanamycin selection, DiMSum; sequences stand for … in CUCUCU…GGAGGGAAAAGUUAUCAGGCAUGCACCUGGUAGCUAGUCUUUAAACCAAUAGAUUGCAUCGGUUUAAAAGGCAAGACCGUCAAAUUGCGGGAAAGGGGUCAACAGCCGUUCAGUACCAAGUCUCAGGGGAAACUUUGAGAUGGCCUUGCAAAGGGUAUGGUAAUAAGCUGACGGACAUGGUCCUAACCACGCAGCCAAGUCCUAAGUCAACAGAUCUUCUGUUGAUAUGGAUGCAGUUCACAGACUAAAUGUCGGUCGGGGAAGAUGUAUUCUUCUCAUAAGAUAUAGUCGGACCUCUCCUUAAUGGGAGCUAGCGGAUGAAGUGAUGCAACACUGGAGCCGCUGGGAACUAAUUUGUAUGCGAAAGUAUAUUGAUUAGUUUUGGAGUACUCGUGGUCG
Procedure, shortened: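 Pooled colonies went to amplicon sequencing on an Illumina HiSeq 2500 after six replicate transformations. The plates were LB agar with 100 μg/mL carbenicillin, 50 μM IPTG and 0.2% rhamnose, with or without 25 μg/mL kanamycin, incubated overnight at 37°C or 30°C. The E. coli BL21(DE3) library had all eight P1ex-region intron nucleotides randomised, the intron placed in the knt kanamycin-resistance gene on pET-22b(+). DiMSum fitness is the error-weighted combination of replicate fold changes, kanamycin against none, normalised to wild type.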

Sequence	self-splicing fitness (ln) (30 °C)	self-splicing fitness (ln) (37 °C)
ACCGAGCAAUAUUACGCAGC	-4.02 ± 0.47	-2.84 ± 0.48
ACCGAGCAAUAUUACGCAUG	-2.69 ± 0.13	-2.47 ± 0.21
ACCGAGCAAUAUUACGCGAA	-2.33 ± 0.32	-3.17 ± 0.4
ACCGAGCAAUAUUACGCUUC	-2.06 ± 0.36	
ACCGAGCAAUAUUACGGACC	-1.29 ± 0.082	-0.293 ± 0.092
ACCGAGCAAUAUUACGGACG	-2.21 ± 0.15	0.0411 ± 0.13
ACCGAGCAAUAUUACGGAGU	-3.72 ± 0.25	-2.11 ± 0.18
ACCGAGCAAUAUUACGGCAC	-2.07 ± 0.14	-1.76 ± 0.27
ACCGAGCAAUAUUACGGUCU	-3.36 ± 0.1	-1.62 ± 0.092
ACCGAGCAAUAUUACGUCGA	-3.13 ± 0.24	-2.12 ± 0.15
ACCGAGCAAUAUUACGUGAC	-4.19 ± 0.34	-1.4 ± 0.15
ACCGAGCAAUAUUACGUGCG	-1.64 ± 0.082	-1.37 ± 0.13
ACCUAGCAAUAUUACGACCU	-1.26 ± 0.1	0.455 ± 0.12
ACCUAGCAAUAUUACGAGGC	-1.58 ± 0.18	-2.64 ± 0.25
ACCUAGCAAUAUUACGAUCA	-1.23 ± 0.17	-1.19 ± 0.18
ACCUAGCAAUAUUACGAUCU	-0.35 ± 0.079	0.0427 ± 0.1
ACCUAGCAAUAUUACGAUGU	-0.605 ± 0.045	0.0835 ± 0.065
ACCUAGCAAUAUUACGCAAA	-2.56 ± 0.3	-1.76 ± 0.18
ACCUAGCAAUAUUACGCACC	-1.24 ± 0.14	0.276 ± 0.16
ACCUAGCAAUAUUACGCACG	-0.85 ± 0.099	0.0662 ± 0.12
ACCUAGCAAUAUUACGCAGC	-1.43 ± 0.095	-1.46 ± 0.12
ACCUAGCAAUAUUACGCAUU	-1.42 ± 0.051	-0.377 ± 0.056
ACCUAGCAAUAUUACGCCAU	-3.51 ± 0.27	-1.21 ± 0.19
ACCUAGCAAUAUUACGCGAG	-3.54 ± 0.15	-1.55 ± 0.11

Sequence	self-splicing fitness (ln) (30 °C)	self-splicing fitness (ln) (37 °C)
ACCUAGCAAUAUUACGCGAU	-2.32 ± 0.078	-0.981 ± 0.087
ACCUAGCAAUAUUACGCGUU	-2.76 ± 0.099	-0.77 ± 0.085
ACCUAGCAAUAUUACGGAAC	-3.04 ± 0.24	
ACCUAGCAAUAUUACGGCAA	-1.41 ± 0.17	0.02 ± 0.14
ACCUAGCAAUAUUACGGCAU	-0.00618 ± 0.076	0.451 ± 0.09
ACCUAGCAAUAUUACGGGUA	-1.76 ± 0.12	-1.19 ± 0.088
ACCUAGCAAUAUUACGGUCC	-2.82 ± 0.15	-2 ± 0.15
ACCUAGCAAUAUUACGUACC	-1.59 ± 0.099	-0.156 ± 0.11
ACCUAGCAAUAUUACGUAGA	-2.73 ± 0.16	-2.49 ± 0.21
ACCUAGCAAUAUUACGUAGG	-3.59 ± 0.2	-2.93 ± 0.21
ACCUAGCAAUAUUACGUCGU	-0.733 ± 0.045	-0.455 ± 0.059
ACCUAGCAAUAUUACGUGUG	-1.28 ± 0.057	-0.808 ± 0.064
ACGAAGCAAUAUUACGAAAG	-3.2 ± 0.12	-2.32 ± 0.16
ACGAAGCAAUAUUACGACAG	-1.59 ± 0.11	-0.583 ± 0.13
ACGAAGCAAUAUUACGACUC	-1.12 ± 0.072	-0.0297 ± 0.088
ACGAAGCAAUAUUACGAGGC	-3.62 ± 0.21	-1.81 ± 0.16
ACGAAGCAAUAUUACGAUAG	-3.09 ± 0.23	-1.87 ± 0.21
ACGAAGCAAUAUUACGAUGC	-3.28 ± 0.21	-2.01 ± 0.37
ACGAAGCAAUAUUACGCAAC	-3.3 ± 0.25	-2.38 ± 0.39
ACGAAGCAAUAUUACGCAGA	-1.42 ± 0.12	-1.1 ± 0.14
ACGAAGCAAUAUUACGCUUC	-3.44 ± 0.19	-2.59 ± 0.2
ACGAAGCAAUAUUACGGAAA	-2.38 ± 0.17	-3.02 ± 0.21
ACGAAGCAAUAUUACGGAAU	-3.14 ± 0.12	-1.34 ± 0.1
ACGAAGCAAUAUUACGGAUA	-3.55 ± 0.32	-2.43 ± 0.23
